Our source for the Kd, koff and kon values is publication PMC4304825, “Six Amino Acid Residues in a 1200 Å2 Interface Mediate Binding of Factor VIII to an IgG4κ Inhibitory Antibody” (PLoS ONE, 2015).

What is called Kd is a measure of binding affinity in units of concentration. Low values mean tighter binding, high ones weaker binding. Broadly, the koff is the rate constant with which the complex falls apart. One may read the kon as a measure of how fast the partners come together. Lower therefore signals slower complex formation.

Numbering of substitutions follows the chain as printed. Numbers in names are those of the source.

In the test the target is T1, von Willebrand factor (VWF) (UniProt P04275 764-2813).
T1 construct: von Willebrand factor; Immobilised by amine coupling
Description: SPR; VWF attached to a CM4 chip by amine coupling at low density (200 RUs); BDD-FVIII proteins injected in a 3-fold concentration series from 0.22-18 nM, single-cycle kinetics; fit to a 1:1 model; Biacore T200. The following applies: both partners purified. For orientation: Surface plasmon resonance follows binding to a sensor surface in real time, without labels.

B1: WT-BDD-FVIII (wild-type B-domain-deleted factor VIII) (natural protein)
chain 1: ATRRYYLGAVELSWDYMQSDLGELPVDARFPPRVPKSFPFNTSVVYKKTLFVEFTDHLFNIAKPRPPWMGLLGPTIQAEVYDTVVITLKNMASHPVSLHAVGVSYWKASEGAEYDDQTSQREKEDDKVFPGGSHTYVWQVLKENGPMASDPLCLTYSYLSHVDLVKDLNSGLIGALLVCREGSLAKEKTQTLHKFILLFAVFDEGKSWHSETKNSLMQDRDAASARAWPKMHTVNGYVNRSLPGLIGCHRKSVYWHVIGMGTTPEVHSIFLEGHTFLVRNHRQASLEISPITFLTAQTLLMDLGQFLLFCHISSHQHDGMEAYVKVDSCPEEPQLRMKNNEEAEDYDDDLTDSEMDVVRFDDDNSPSFIQIRSVAKKHPKTWVHYIAAEEEDWDYAPLVLAPDDRSYKSQYLNNGPQRIGRKYKKVRFMAYTDETFKTREAIQHESGILGPLLYGEVGDTLLIIFKNQASRPYNIYPHGITDVRPLYSRRLPKGVKHLKDFPILPGEIFKYKWTVTVEDGPTKSDPRCLTRYYSSFVNMERDLASGLIGPLLICYKESVDQRGNQIMSDKRNVILFSVFDENRSWYLTENIQRFLPNPAGVQLEDPEFQASNIMHSINGYVFDSLQLSVCLHEVAYWYILSIGAQTDFLSVFFSGYTFKHKMVYEDTLTLFPFSGETVFMSMENPGLWILGCHNSDFRNRGMTALLKVSSCDKNTGDYYEDSYEDISAYLLSKNNAIEPR
chain 2: EITRTTLQSDQEEIDYDDTISVEMKKEDFDIYDEDENQSPRSFQKKTRHYFIAAVERLWDYGMSSSPHVLRNRAQSGSVPQFKKVVFQEFTDGSFTQPLYRGELNEHLGLLGPYIRAEVEDNIMVTFRNQASRPYSFYSSLISYEEDQRQGAEPRKNFVKPNETKTYFWKVQHHMAPTKDEFDCKAWAYFSDVDLEKDVHSGLIGPLLVCHTNTLNPAHGRQVTVQEFALFFTIFDETKSWYFTENMERNCRAPCNIQMEDPTFKENYRFHAINGYIMDTLPGLVMAQDQRIRWYLLSMGSNENIHSIHFSGHVFTVRKKEEYKMALYNLYPGVFETVEMLPSKAGIWRVECLIGEHLHAGMSTLFLVYSNKCQTPLGMASGHIRDFQITASGQYGQWAPKLARLHYSGSINAWSTKEPFSWIKVDLLAPMIIHGIKTQGARQKFSSLYISQFIIMYSLDGKKWQTYRGNSTGTLMVFFGNVDSSGIKHNIFNPPIIARYIRLHPTHYSIRSTLRMELMGCDLNSCSMPLGMESKAISDAQITASSYFTNMFATWSPSKARLHLQGRSNAWRPQVNNPKEWLQVDFQKTMKVTGVTTQGVKSLLTSMYVKEFLISSSQDGHQWTLFFQNGKVKVFQGNQDSFTPVVNSLDPPLLTRYLRIHPQSWVHQIALRMEVLGCEAQDLY
In the case of B1, the Kd turned out to be 0.29 nM, the koff worked out at 0.00069 s⁻¹ and the kon amounted to 2.4e+06 M⁻¹ s⁻¹.

B2: BDD-FVIII-F2196K (natural protein)
chain 1: B1 chain 1
chain 2: B1 chain 2 with F548K
B2: the Kd came to 0.2 nM, the koff is 0.00054 s⁻¹ and the kon turned out to be 2.9e+06 M⁻¹ s⁻¹.

B3: BDD-FVIII-M2199A (natural protein)
chain 1: B1 chain 1
chain 2: B1 chain 2 with M551A
B3 came in with a Kd of 0.25 nM, a koff of 0.00067 s⁻¹ and a kon of 2.7e+06 M⁻¹ s⁻¹.
